Laboratory results taken from patent US20190134169A1.

Target: mouse Notch1 on CD4+ T cells (mouse) (UniProt Q01705)
Experiment: cell-based or functional assay

Sequence of UniProt Q01705 (Q01705 19-2531): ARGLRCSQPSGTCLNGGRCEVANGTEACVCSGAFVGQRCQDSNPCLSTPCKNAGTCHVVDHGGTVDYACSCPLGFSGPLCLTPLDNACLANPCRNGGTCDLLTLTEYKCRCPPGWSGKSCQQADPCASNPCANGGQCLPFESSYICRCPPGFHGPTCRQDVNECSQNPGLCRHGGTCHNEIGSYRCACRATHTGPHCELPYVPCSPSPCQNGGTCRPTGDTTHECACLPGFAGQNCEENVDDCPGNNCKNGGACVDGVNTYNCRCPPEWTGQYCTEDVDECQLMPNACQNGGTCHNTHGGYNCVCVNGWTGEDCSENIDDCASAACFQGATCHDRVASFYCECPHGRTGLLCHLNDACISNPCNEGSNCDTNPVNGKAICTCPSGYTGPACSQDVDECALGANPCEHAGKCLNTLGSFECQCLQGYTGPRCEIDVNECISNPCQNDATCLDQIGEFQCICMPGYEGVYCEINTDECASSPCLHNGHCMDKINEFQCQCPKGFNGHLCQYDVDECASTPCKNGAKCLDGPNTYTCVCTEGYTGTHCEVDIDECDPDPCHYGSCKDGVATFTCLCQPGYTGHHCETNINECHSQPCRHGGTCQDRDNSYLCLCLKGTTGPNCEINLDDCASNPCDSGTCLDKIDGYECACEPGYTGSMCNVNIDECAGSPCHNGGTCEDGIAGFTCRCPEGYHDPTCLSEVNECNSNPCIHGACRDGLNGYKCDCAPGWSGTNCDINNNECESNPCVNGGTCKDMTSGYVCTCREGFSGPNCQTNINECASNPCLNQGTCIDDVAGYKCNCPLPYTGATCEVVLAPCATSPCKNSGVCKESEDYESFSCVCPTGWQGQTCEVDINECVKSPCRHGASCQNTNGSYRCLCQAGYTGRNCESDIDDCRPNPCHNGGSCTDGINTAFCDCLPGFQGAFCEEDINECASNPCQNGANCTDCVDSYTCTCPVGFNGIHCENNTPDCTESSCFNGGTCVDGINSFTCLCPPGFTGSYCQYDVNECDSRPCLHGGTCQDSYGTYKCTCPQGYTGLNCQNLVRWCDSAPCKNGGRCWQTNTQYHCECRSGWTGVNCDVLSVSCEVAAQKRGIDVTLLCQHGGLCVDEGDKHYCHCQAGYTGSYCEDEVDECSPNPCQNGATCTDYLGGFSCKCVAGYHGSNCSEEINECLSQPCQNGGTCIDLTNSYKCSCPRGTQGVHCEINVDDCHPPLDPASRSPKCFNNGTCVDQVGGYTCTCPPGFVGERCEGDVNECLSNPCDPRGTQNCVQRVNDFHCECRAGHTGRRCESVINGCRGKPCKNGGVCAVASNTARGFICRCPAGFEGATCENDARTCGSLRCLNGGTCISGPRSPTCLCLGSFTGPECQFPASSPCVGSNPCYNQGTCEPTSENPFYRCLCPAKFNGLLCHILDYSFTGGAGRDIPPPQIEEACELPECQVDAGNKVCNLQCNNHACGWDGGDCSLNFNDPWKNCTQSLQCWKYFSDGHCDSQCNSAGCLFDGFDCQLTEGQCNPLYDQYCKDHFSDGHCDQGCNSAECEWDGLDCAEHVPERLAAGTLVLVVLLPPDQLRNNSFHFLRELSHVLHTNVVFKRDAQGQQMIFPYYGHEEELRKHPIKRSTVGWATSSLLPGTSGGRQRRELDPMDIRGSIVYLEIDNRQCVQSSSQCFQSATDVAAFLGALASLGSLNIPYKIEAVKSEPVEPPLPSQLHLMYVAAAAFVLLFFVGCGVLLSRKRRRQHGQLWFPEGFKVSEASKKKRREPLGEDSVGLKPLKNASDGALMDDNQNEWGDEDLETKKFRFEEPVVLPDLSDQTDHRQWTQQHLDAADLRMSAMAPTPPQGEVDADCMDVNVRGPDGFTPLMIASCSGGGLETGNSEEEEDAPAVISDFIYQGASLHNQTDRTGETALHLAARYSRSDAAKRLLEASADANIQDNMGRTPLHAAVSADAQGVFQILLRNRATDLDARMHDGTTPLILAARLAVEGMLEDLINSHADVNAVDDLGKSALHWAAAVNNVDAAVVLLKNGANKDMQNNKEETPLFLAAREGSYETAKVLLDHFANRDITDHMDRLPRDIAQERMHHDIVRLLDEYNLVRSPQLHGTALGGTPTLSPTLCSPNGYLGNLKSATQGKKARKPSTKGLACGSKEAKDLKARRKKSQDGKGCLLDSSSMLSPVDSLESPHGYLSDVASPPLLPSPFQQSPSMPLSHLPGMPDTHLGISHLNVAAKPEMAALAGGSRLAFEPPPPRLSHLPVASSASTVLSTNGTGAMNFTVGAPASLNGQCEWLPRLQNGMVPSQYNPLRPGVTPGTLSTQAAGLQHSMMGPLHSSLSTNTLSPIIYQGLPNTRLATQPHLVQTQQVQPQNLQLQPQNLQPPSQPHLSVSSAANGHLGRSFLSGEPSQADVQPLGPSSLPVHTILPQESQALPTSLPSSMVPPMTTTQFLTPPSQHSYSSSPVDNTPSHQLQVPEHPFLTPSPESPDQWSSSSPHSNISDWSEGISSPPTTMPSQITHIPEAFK

Question: With “mouse delta-like ligand 4 (DLL4) on the surface of DLL4hiDCs (from UniProt Q9JI71 27-686)” as the substance, how does the percentage of DLL4hiDC-activated CD4+ T cells with high cleaved intracellular Notch (ICN) read?
Answer: 61%
